From publication PMC7483680 (Experimental parasitology, 2020)

Biological target: T1, recombinant GST-tagged wild-type Toxoplasma gondii GCN5b bromodomain (BRD) (Toxoplasma gondii, UniProt S8F3V2 877-986)
T1 sequence (looked up): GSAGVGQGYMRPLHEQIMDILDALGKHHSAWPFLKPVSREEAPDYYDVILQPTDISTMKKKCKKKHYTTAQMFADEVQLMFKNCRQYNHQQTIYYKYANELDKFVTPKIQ
Experiment: pull-down

B1: biotinylated tetra-acetylated histone H4 peptide (K5/8/12/16), residues 1-18 of human histone H4 (peptide, UniProt P62805 2-19, looked up)
peptide: SGRGKGGKGLGKGGAKRH
modifications: acetyl-lysine at K5, K8, K12 and K16; biotin (position not given)
Question: Does B1 bind?
Answer: binds
